Patent US20230357420A1 (VILLARIS THERAPEUTICS, published 2023)
Substitutions are numbered along the chain they refer to. Values belong to the binder of their own block, whether it stands above or below them.

Columns and labels:
Human BCAM protein = target: T1, Human BCAM protein (human, UniProt P50895 32-547, limits assumed); experiment: binding ELISA on human BCAM protein, IgG at log10 about 1.1 to 3.0 nM, OD450nm
T1 construct: Protein used in ELISA; also called BCAM (ELISA antigen)
T1 sequence: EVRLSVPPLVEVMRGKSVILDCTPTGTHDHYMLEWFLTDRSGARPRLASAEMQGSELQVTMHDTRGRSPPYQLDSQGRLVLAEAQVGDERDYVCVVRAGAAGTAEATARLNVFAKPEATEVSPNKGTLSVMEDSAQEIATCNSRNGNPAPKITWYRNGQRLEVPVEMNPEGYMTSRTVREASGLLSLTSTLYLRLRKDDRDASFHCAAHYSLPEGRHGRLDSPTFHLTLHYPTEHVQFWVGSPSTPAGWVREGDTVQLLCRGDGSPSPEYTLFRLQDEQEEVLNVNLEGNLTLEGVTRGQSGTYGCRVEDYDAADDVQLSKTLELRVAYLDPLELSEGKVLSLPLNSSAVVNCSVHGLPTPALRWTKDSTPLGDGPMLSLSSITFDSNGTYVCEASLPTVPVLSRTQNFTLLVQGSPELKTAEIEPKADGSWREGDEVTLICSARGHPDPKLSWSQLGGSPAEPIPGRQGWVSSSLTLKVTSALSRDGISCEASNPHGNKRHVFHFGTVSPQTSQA

Human CD122 = target: T2, Human CD122 (human, UniProt P14784 27-551); experiment: cell-based or functional assay
T2 sequence: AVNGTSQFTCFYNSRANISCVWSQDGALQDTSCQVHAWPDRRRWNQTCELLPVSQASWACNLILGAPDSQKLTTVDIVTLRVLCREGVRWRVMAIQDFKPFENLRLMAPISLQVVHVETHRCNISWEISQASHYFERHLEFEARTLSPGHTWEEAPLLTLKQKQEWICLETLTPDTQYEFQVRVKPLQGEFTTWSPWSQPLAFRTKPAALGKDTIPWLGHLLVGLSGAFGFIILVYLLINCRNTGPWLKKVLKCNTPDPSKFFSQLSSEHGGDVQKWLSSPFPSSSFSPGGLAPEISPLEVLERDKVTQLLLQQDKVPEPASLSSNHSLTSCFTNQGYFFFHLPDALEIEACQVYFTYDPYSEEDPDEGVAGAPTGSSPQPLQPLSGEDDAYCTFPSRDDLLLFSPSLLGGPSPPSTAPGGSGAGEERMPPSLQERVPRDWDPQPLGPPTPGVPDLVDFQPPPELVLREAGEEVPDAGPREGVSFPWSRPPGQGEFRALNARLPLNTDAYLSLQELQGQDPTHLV

Human CD122 His tagged [1] = target: T3, Human CD122 His tagged (human, UniProt P14784 27-240); experiment: Biacore, Fab affinity and kinetics on hCD122
T3 construct: also called hCD122; monomeric antigen; not shown: His tag
T3 sequence: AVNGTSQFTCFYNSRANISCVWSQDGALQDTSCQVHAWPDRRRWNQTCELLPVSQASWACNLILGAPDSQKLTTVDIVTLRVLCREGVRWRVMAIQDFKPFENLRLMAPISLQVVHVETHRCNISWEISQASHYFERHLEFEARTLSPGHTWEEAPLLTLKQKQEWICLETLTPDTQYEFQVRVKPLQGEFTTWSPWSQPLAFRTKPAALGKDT

Rhesus CD122 His tag [2] = target: T4, Rhesus CD122 His tag (rhesus monkey, UniProt Q38J85 27-240 (cynomolgus entry)); experiment: Biacore SPR, Fab, 1:1 binding
T4 construct: also called rhCD122; cynomolgus and/or rhesus monkey CD122 His tag; not shown: His tag
T4 sequence: T3 sequence with Q7R, A66T, T74A, L83M, V92M, E127K, L158M

Human CD122 His tagged [3] = target: T3, Human CD122 His tagged; experiment: Biacore SPR, Fab, 1:1 binding
Human CD122 His tagged [4] = target: T3, Human CD122 His tagged; experiment: Biacore SPR, Fab
Rhesus CD122 His tag [5] = target: T4, Rhesus CD122 His tag; experiment: Biacore SPR, Fab
Human CILP2 protein = target: T5, Human CILP2 protein (human, UniProt Q8IUL8 21-1156, limits assumed); experiment: BIACORE SPR, Fab at 62.5, 125, 250, 500 and 1000 nM on human CILP2 protein; Rmax
T5 construct: also called cartilage intermediate layer protein 2
T5 sequence (looked up): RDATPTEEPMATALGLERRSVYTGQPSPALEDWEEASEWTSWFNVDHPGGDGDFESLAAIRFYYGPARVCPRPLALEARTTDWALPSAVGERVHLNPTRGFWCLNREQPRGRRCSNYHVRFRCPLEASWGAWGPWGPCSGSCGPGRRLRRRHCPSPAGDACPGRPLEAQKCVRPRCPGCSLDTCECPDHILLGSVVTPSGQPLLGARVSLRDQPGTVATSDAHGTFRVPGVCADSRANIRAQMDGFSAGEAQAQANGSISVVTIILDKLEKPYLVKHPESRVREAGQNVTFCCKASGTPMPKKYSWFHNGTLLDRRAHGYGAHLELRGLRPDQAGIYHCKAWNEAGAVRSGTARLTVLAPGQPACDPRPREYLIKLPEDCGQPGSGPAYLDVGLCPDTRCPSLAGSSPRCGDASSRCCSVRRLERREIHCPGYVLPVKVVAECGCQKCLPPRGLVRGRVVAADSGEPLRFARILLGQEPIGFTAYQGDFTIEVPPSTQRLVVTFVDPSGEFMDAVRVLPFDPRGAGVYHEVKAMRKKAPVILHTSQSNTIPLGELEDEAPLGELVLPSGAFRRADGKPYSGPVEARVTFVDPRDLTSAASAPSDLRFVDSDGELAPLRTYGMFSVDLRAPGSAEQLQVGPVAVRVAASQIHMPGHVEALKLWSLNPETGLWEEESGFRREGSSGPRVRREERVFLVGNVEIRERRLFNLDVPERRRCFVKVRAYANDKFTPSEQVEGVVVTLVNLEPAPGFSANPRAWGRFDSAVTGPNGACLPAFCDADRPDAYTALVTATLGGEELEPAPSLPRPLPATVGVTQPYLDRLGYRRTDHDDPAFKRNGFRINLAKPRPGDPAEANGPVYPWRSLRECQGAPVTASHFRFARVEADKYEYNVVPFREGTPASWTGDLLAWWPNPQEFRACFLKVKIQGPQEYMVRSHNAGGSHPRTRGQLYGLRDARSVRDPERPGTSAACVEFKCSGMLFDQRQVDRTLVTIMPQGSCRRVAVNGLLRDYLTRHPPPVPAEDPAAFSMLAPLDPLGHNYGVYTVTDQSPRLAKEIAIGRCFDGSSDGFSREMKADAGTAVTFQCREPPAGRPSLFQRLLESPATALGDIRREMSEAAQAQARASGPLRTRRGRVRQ

Human neudesin protein = target: T6, Human neudesin protein (human, UniProt Q9UMX5 32-172); experiment: BIACORE SPR, Fab at 62.5, 125, 250, 500 and 1000 nM on human neudesin protein; Rmax
T6 construct: also called NENF
T6 sequence (Q9UMX5 32-172 limits assumed): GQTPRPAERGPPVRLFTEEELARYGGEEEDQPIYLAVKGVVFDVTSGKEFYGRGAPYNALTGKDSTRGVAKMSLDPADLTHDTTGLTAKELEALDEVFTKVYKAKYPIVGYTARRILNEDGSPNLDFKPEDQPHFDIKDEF

binding result (Human BCAM protein): no binding (tested: 1000 nM (log10 3.0)) | IC50, IL-15-induced CD4+ T cell accumulation (Human CD122): 2.1 µg/mL | IC50, IL-15-induced skin-resident CD8+ T cell accumulation (Human CD122): 1.9 µg/mL | fold improvement of potency over VillMab-1, IL-15 stimulated M07e assay (Human CD122): ~2 fold
B1: MAB05 (antibody, V domains shown)
VH: EVQLLESGGGLVQPGGSLRLSCAASGFTVTSYAVHWVRQAPGKGLEWLGVIWSGGSTDYNAAFISRLTISKDNSKNTVYFQMNSLRAEDTAVYYCARAGDANYDGFAYWGQGTLVTVSS
VL: DIQMTQSPSSLSASVGDRVTITCQASQSVSFLYWYQQRPGKAPRLLIYDTSNLASGVPSRFSGSGSGTSYTFTISSLQPEDIATYYCQQWSTYPLTFGQGTKVEIK
notes: also called Mab5; clone 05

binding result (Human BCAM protein): no binding (tested: 1000 nM (log10 3.0)) | IC50, IL-15-induced CD4+ T cell accumulation (Human CD122): 1.8 µg/mL | IC50, IL-15-induced skin-resident CD8+ T cell accumulation (Human CD122): 1.8 µg/mL | fold improvement of potency over VillMab-1, IL-15 stimulated M07e assay (Human CD122): ~2 fold
B2: MAB06 (antibody, V domains shown)
VH: B1 VH
VL: B1 VL with Q27S, L32M
notes: also called Mab6; clone 06

Kd (Human CD122 His tagged [1]): 12.4 nM | koff (Human CD122 His tagged [1]): 0.0034 s⁻¹ | kon (Human CD122 His tagged [1]): 270000 M⁻¹ s⁻¹ | Kd (Rhesus CD122 His tag [2]): 12 nM | koff (Rhesus CD122 His tag [2]): 0.00279 s⁻¹ | kon (Rhesus CD122 His tag [2]): 233000 M⁻¹ s⁻¹ | Kd (Human CD122 His tagged [3]): 16.5 nM | koff (Human CD122 His tagged [3]): 0.00372 s⁻¹ | kon (Human CD122 His tagged [3]): 226000 M⁻¹ s⁻¹ | Kd (Human CD122 His tagged [4]): 12.4 nM | Kd (Rhesus CD122 His tag [5]): 10.2 nM | binding result (Human CILP2 protein): no binding (tested: 1000 nM) | binding result (Human neudesin protein): no binding (tested: 1000 nM)
B3: VillFab-1 (Fab, V domains shown)
VH: B1 VH with T28S, A33G, V37I, R86Q, V92I, A101Y
VL: B1 VL with Q3V, M4L, Q24S, A25G, Q27S, L32M, I105V
notes: also called Villmab-1 in human Fab format
